pKd: −log10 of the molar value.
Tests used:
[1] = molecular target: nucleophosmin/B23 (NPM), papain-released material of Jurkat T cell membrane preparations, Mono-Q pool 85-87 (human) (UniProt P06748); experiment: SPR (BIACORE X), protein H over biotinylated NPM on an avidin chip; mean ± SD of three experiments
[2] = molecular target: nuclear proteins (mixture of Jurkat nuclear extract proteins purified on protein H-Sepharose); experiment: SPR (BIACORE X), protein H over immobilised nuclear proteins; mean ± SD of three experiments
[3] = molecular target: nucleophosmin/B23 (NPM), papain-released material of Jurkat T cell membrane preparations, Mono-Q pool 85-87 (human) (UniProt P06748); experiment: Affinity chromatography of 125I-labelled pool 85-87 (run-through of protein A-Sepharose) on protein H-Sepharose

protein H of Streptococcus pyogenes, COOH-terminally truncated fragment expressed by and purified from E. coli (305 amino acids), sequence (P50470 42-346): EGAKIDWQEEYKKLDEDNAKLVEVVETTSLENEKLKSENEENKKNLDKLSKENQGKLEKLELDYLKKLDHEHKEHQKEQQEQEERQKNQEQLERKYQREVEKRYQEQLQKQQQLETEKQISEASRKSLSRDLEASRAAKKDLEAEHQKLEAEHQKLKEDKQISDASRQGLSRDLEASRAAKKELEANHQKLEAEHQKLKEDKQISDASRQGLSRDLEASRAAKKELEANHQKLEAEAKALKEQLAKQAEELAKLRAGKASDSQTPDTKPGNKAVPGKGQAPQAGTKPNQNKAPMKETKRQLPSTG
nucleophosmin/B23 (NPM), papain-released material of Jurkat T cell membrane preparations, Mono-Q pool 85-87 (human), sequence (P06748 1-147 limits assumed): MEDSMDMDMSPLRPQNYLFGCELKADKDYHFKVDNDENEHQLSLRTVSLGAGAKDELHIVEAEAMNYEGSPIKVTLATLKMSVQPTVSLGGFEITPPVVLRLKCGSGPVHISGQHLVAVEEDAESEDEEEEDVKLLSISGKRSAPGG

protein H of Streptococcus pyogenes, COOH-terminally truncated fragment expressed by and purified from E. coli (305 amino acids) (from UniProt P50470 42-346)
Ka [1]: 3.6e+06 M⁻¹ | pKd [1]: 6.54 | koff [1]: 0.0019 s⁻¹ | kon [1]: 6700 M⁻¹ s⁻¹ | Ka [2]: 2.62e+07 M⁻¹ | pKd [2]: 7.36 | koff [2]: 6.7e-05 s⁻¹ | kon [2]: 1700 M⁻¹ s⁻¹ | percent of radioactivity bound [3]: > 70%
